From patent US20180258175A1 (ABLEXIS, published 2018)
Like-named read-outs stand apart in the source and are kept apart here.

Experiments:
[1] = target: T1, native CD115 on OCI-AML5 cells (UniProt P07333 20-972, limits assumed); experiment: cell-based or functional assay
[2] = target: T2, human CD115 extracellular domain (Sino Biological 10161-H08H) (human, UniProt P07333 20-517); experiment: ELISA, blocking of biotin-CSF-1 binding to coated hu-CD115
T2 construct: extracellular domain; bought recombinant protein; also called huCD115; hu-CD115

[3] = target: T2, human CD115 extracellular domain (Sino …); experiment: SPR ProteOn, mAb amine coupled, Hu CD115 analyte
[4] = target: T2, human CD115 extracellular domain (Sino …); experiment: ELISA, blocking of biotin-CSF-1 binding to coated hu-CD115; remark: listed apart in the source
[5] = target: T1, native CD115 on OCI-AML5 cells; experiment: cell-based or functional assay; remark: listed apart in the source

IC50, inhibition of CSF-1 induced P-Tyr on CD115 [1]: 58 pM
IC50 [2]: 135 pM
Kd [3]: 1200 pM
koff [3]: 0.015 s⁻¹
kon [3]: 1.3e+07 M⁻¹ s⁻¹
IC50 [4]: 191 pM
IC50, inhibition of CSF-1 induced phosphorylation of CD115 [5]: 45 pM
B1: CCK-423A (antibody, V domains shown)
VH: QVQLEQSGAEVKRPGASVKVSCKASGYTFTGYYMHWVRQAPGQGLEWMGWINPNRGDTNYAQKFQGRVTMTRDTSISTAYMELSRLRSDDTAVYYCARDLEGGGPFDYWGQGTLVTVSS
VL: DIVMTQTPLSLPVTPGEPASISCRSSQSLLDSDDGNTYLDWYLQKPGQSPQLLIYTLSYRASGVPDRFSGSGSGTDFTLKISRVEAEDVGVYYCMQRIEFPSTFGQGTRLEIK
notes: AlivaMab chimeric IgG, human kappa LC; also called AlivaMab CCK423A; AlivaMab Mouse CCK423A
